# Measured values from the DeepSol protein solubility set.
# Assay: soluble on expression in E. coli; label from the status in PepcDB or PDB records
row,Sequence,soluble on expression in E. coli
1,DHSARPKLGIDLQGGTRVTLVPQGQNPTEDQLAQAKSILENRVNGMGVSGASVVSDGNTLVITVPGEDTTQARALGQTSQLLFRPVAKPDAPDTTKLLDAMKEMANRWVEVGVLTPQEANDALSNTAKALAQSEGKKPEDAKAPTVTAKEPKEPANSIESEQLRNKVLEVMKKDRQSTDATTQLSASSLLKCDDTPDPLQGTDDPTKPLVACDPSSGQVYVLSPAPLLQGETDQANGKRLTGNEIDTNRPITGGLNPQTGQMEIGFSFKSDNGDQGSATWAKLTQEYLQKQVAITLDSK,not soluble
2,MNRRDFLQFGLRGIVVAGLGKGFYNTTSEQVEIVRTSVKIRNLPAALQGLKIGLLTDLHASFVVSSETIRSAGRLLMAEKPDLIVMTGDYISGSTRFLSGSVGQFKKEYLSKCIDALSGLKAPLGIYGVLGNHDFWSGPESVKAICEAFTRQMGMVWLRNSSVEIRRGRGSLHLLGVDDYWEPSCSLAAACKGVDTDGIKILLSHNPDINDEIFLLRERIDLVLSGHTHGGQVVVPFLGQPVMPSKFGQKYRAGLVRDGDRQTYISRGVGCLLAPIRLNCPPEATVLTLTLEHHHHHH,soluble
3,MGSDKIHHHHHHMRKYSQRHIPVMVREVIEFLKPEDEKIILDCTVGEGGHSRAILEHCPGCRIIGIDVDSEVLRIAEEKLKEFSDRVSLFKVSYREADFLLKTLGIEKVDGILMDLGVSTYQLKGENRGFTFEREEPLDMRMDLESEVTAQKVLNELPEEELARIIFEYGEEKRFARRIARKIVENRPLNTTLDLVKAVREALPSYEIRRRKRHFATKTFQAIRIYVNRELENLKEFLKKAEDLLNPGGRIVVISFHSLEDRIVKETFRNSKKLRILTEKPVRPSEEEIRENPRARSGRLRAAERIEEGGD,not soluble
4,MGSDKIHHHHHHMDTAKTKPFDEMFLQDEVIRPIYAEYAAWLQDVPHQQLESKRQEAELLFRRVGITFNVYGEDAGAERLIPFDVVPRILSASEWARLSDGAIQRVKALNMFLHDVYHDQEIIKAGIVPSSILANAQYRPEMFGVDVPGGVYAHIAGVDLVRTGENDFYVLEDNLRTPSGVSYMLENRKMMMRLFPELFRRYPVAPVEHYPQVLLNNLRAVAQAGVHEPTVVLLTPGAYNSAYFEHAFIAQQMGIELVEGQDLFVRNNAVYMRTTEGPKRVDVIYRRIDDDFIDPLSFRPDSMLGVPGLLSVYRNGGVTLANAVGTGVADDKDTYIYVPEMIRFYLGEEPILSNVPTYQLSKADDLKYVLDNLAELVVKEVQGSGGYGMLVGPAASKQELEDFRQRILANPANYIAQPTLALSTCPTLVETGIAPRHVDLRPFVLSGKTVSLVPGALCRVALREGSLVVNSSQGGGTKDTWILKD,not soluble
5,MGSDKIHHHHHHMIFASDLDQTLIYSRKSFRAHIEDNSIQLIETLDGKEISFITYKTITLLIKLQLHSYFIPVTTRTIEQFQRITLFQNEIIPEYAITSNGGNILHNGKQDVTWNKEIKKRISVECIERNDILKEFEQIAHKDWVISQKTADDLFHYCIIKRENIPYDELSSFTSWLDKQGWNHSLQGRKLYFVPKPINKWDAVQYIQEILQMDTIITAGDSLLDLCMLEKANYAFAPLHGELGATYNHLQPHIVKTDAIGIYAAEEIVSKSLQIIHSSSPTS,not soluble
6,GAKPERGRFLHFHSVTFWVGNAKQAASFYCSKMGFEPLAYRGLETGSREVVSHVIKQGKIVFVLSSALNPWNKEMGDHLVKHGDGVKDIAFEVEDCDYIVQKARERGAKIMREPWVEQDKFGKVKFAVLQTYGDTTHTLVEKMNYIGQFLPGYEAPAFMDPLLPKLPKCSLEMIDHIVGNQPDQEMVSASEWYLKNLQFHRFWSVDDTQVHTEYSSLRSIVVANYEESIKMPINEPAPGKKKSQIQEYVDYNGGAGVQHIALKTEDIITAIRHLRERGLEFLSVPSTYYKQLREKLKTAKIKVKENIDALEELKILVDYDEKGYLLQIFTKPVQDRPTLFLEVIQRHNHQGFGAGNFNSLFKAFEEEQNLRGNLTNMETNGVVPGMAENLYFQ,soluble
7,MKDNEQKAGSVADQKNKIRERYKGVSIDELDVIPALPQEDIFAVENEQRVAVYARVSTDDPRQTSSYELQKNHYHDVISKSPNWKLVQIYADEGISGTSLQHRDQFKLMIEDCKKGEIDLIVTKSVSRFARNVVDCIGYVRELLALPHPVGVFFETERLNTFDPKSEMVLSFMATLAQEESHTKSEIMNASIEMRFRRGIFLTPTLLGYDHDEDGNLVVNEGEAKIVRLIFMMYLNGCTCQEIADTMTELGCETKKGNTVWSPGSILQILQNERHCGDVLARKTYTPNYLNHKSKKNMQNRPQYRKRNHHEAIISRDDFIAVQRLISNAKYGNKGILPELKVISNGVLKGFVSINPRWAGFKENDYISASLSVYDQMEQLSPSASSVEVQSGDFDLRGYEIARSQFFDGTDRITVTFSLNDIKFSTAAVRKLNSTLVELLLHPNKHLFAVRTASQAHRNAMQWAKKRGELSVPRAVSGTAFMPTVYALLGWNTDCRYRITGIRRGNGNDAVLLFNLEETEIFIPSDVIDEQQTSDARTDVKPLEHHHHHH,soluble
8,MGHHHHHHSHMSVPRGPIAQWADGAISPNGHRPQLRAASGEDSTEEALAAAAAPWEGGPVPGVDTSPFAKSLGHSRGEADLFDSGDIFSTGTGSQSVERTKPKAKIAENPANPPVGGKAKSPMFPALGEASSDDDLFQSAKPKPAKKTNPFPLLEDEDDLFTDQKVKKNETKSSSQQDVILTTQDIFEDDIFATEAIKPSQKTREKEKTLESNLFDDNIDIFADLTVKPKEKSKKKVEAKSIFDDDMDDIFSTGIQAKTTKPKSRSAQAAPEPRFEHKVSNIFDDPLNAFGGQ,not soluble
9,MSLTASPIVVFDLDGTLIDTAPDLINALNFILVREGMPAVPMAVARNMIGQGARRLLERGLELDGRVIAQDDVNRLTVDFIDYYAAHIADESRPFEGLEATLDELSESGYRFAVCTNKLEWLSKLLLDRLGLSPRFAAICGADTFGVAKPDPAILRETVAKAGGDLSAAIMVGDAGPDVGVARRAGVPVIGVEFGYTEVPIAELQPDLLVGHMRELPNAVGRLLPRREGHHHHHH,soluble
10,MAHHHHHHMGNTNSSADRSNADDRGVHSEFMYRYETTKKLKLSYMMLKKNVATAVMTMEVTPQHLRDVGTGYSNVCACLKHGGSGGTNSCIQGQAAGREQASISRSRIDREFADESYKGFQTFCEAMDDIKAGVCVTSRTAIHERITVELDRMVLTAERVLKQGRKTMRSMAHFTKVARQVSRRERAAVDQGKDLSSSKRYAKAVKERNEKESLYKTELEAFDQLYEHVMVVSQEFCSSTTDIFLDCIVGYYREIVATIDVSDTPQCSRLQSRFRSREREVVLHQASDAGFCAMPAGHMDGSKSLSSTVPLKWD,soluble
11,MLKKLKNFILFSSIFSPIAFAISCSNTGVVKQEDVSVSQGQWDKSITFGVSEAWLNKKKGGEKVNKEVINTFLENFKKEFNKLKNANDKTKNFDDVDFKVTPIQDFTVLLNNLSTDNPELDFGINASGKLVEFLKNNPGIITPALETTTNSFVFDKEKDKFYVDGTDSDPLVKIAKEINKIFVETPYASWTDENHKWNGNVYQSVYDPTVQANFYRGMIWIKGNDETLAKIKKAWNDKDWNTFRNFGILHGKDNSSSKFKLEETILKNHFQNKFTTLNEDRSAHPNAYKQKSADTLGTLDDFHIAFSEEGSFAWTHNKSATKPFETKANEKMEALIVTNPIPYDVGVFRKSVNQLEQNLIVQTFINLAKNKQDTYGPLLGYNGYKKIDNFQKEIVEVYEKAIK,soluble
12,SRDEIATTVFFVTRLVKKHDKLSKQQIEDFAEKLMTILFETYRSHWHSDCPSKGQAFRCIRINNNQNKDPILERACVESNVDFSHLGLPKEMTIWVDPFEVCCRYGEKNHPFTVASFKGRWEEWELYQQISYAVSRASSDVSSGTSCDEESCSKEPRVIPKVSNPKSIYQVKSVPVLFYTFFLSNSKKNALIMKTKKQKNMERTKL,soluble
13,MKTLEAIKKELGEYEGKNIKIMEVCGTHTSSIFKNGIRSLISPRIQLISGPGCPVCVTASSYIDRLVEYSLKDNHCVLTFGDMMKVKGHKLSLTEAKATGGNVKILYSPLSAVKIAIKSPETQFIFAAVGFETTAPIYALMIEEIIKNNIKNLKLMTSIKTIIPAISYICENEKNIDAFLCPGHVSVIIGSSVYTDMALKYRKPFVIGGFEGGHIIAAIYEIIRQISNNEYSMKNMYQSAVSPEGNQKAKSLIDKYFEAADDYWRGIGIIKNSGLRLRTEYRDFDAGSTIFEDADAAPSGCKCADVILGRITPAQCPLFGKACTPLNAVGACMVSSEGACGIWYRNCEV,soluble
14,MTGNEHSAIETYECDVLVAGSGASGMSAAITARYRGLDVLIVEKEPRFGGTTARSGGWLWIPGTSLAKAYGIEETPEQARTYLRHEAGNNFDGARIDAFLSAGPEAVDFFTTRTALRFDMPLVFPDYHAEAPGGAQGGRSMVTRPFDGRELGEQIRTLGMPLPELTVFGMMLGSGKEIIHFMRVTKSLTSAVYVAKRLSRHLMDVLHYGRGMTLTNGNALAGRLAKSALDLKIPMWLSSPVRELTVENGAVTGAIVSREGRKVRVRARQGVVLACGGFPHDVERRKKMFPHAPTGNEHFSPGPIGNTGDGLRLAESAGGHVEDRLPNAAAWVPVSLTTRKDGSKGVMPHFIDRAKPGVIAVMRDGRRFANEGNSYHDFVQAMVKAAKPGEEIAAYLVCDHKTLRKYGLGCVPPFPMPLGHHLSTGYLMRGDTLEALAAKAGIDATAFAETVRQFNTTAPLGHDAAFGKGSKAYNRYQGDALHGPNPCVAPIENGPFYAIKMVIGDLGTYAGIITDENARALDAEGRVIPGLYAAGNDMASIMGGNYPGAGITLGPALTFGYIAGRHLADSAAKRNAALEHHHHHH,not soluble
15,LYRHFAHRPDDLYRLEWREYETLLARIFQSQGFDVELGPGRGDEGVDIRLIQRDPIGDIVTLVQAKKYGAGNKIDQTQVAALYGIQQSEDANFSMFVTTSAYAPVAKRFSAREKV,not soluble
16,MGSDKIHHHHHHMKQFSGLSRTIQGNHLLDTCAIDILKIGHRPLVLCAKQEYNTTVESFVKVLTCHGLIVKIVYMEEWDQNSVEECGEVGFRHRADHIIGIGNSSVAACTKAVADLLDLPAVLIPTSPFTTLPWVSVENKKRERPLFNESIQLIIADREQLLTQPTSELINGVVNTLLYLAAIKEVKRNHLFSLVDDILIRSFESVLLRGSLQAIEDFEARILSKEVQDVLEVLSTCVTLDLPSDAWDVIQQIESKLSERREDLVDEPLKRNVVLYLLLSYLTQESEEFQARLKWCQQLLLSANSSNLLSLEAVLKEIALEMGEDGSTRC,not soluble
17,MGSDKIHHHHHHMPNIIIIERDINYLKIFIKCMKESGFEVVCMNNTKLVSQVAQKQLPDLIICSLEIAKQNNCNFWNNLCQNFVTATIPLIFLINEASEIYQCPEFAADGYITKFCTTEELNKAIKAQLAKQAARKHGYAIQSQQVLNSPSIGNDQPNVQSILPSIPRLNLVFEFIAANYDKPISLCDVAEALGYSATYLTTVVTQTTGKSLQKWIIECRITAAQILLLQTDQSVNQIALKVGYENLAHFYRQFRDYHGTSPQVWREVEKSHNSHQLNKDKASLNSNNFGDFQ,not soluble
18,MNNSAFTFQTLHPDTIMDALFKQGIRVDSGLTPLNSYENRVYQFQDEERRRFVVKFYRPERWTADQILEEHQFALQLVNDEVPVAAPVAFNGQTLLNHQGFYFAVFPSVGGRQFEADNIDQMEAVGRYLGRMHQTGRKQLFIHRPTIGLNEYLIEPRKLFEDATLIPSGLKAAFLKATDELIAAVTAHWREDFTVLRLHGDCHAGNILWRDGPMFVDLDDARNGPAIQDLWMLLNGDKAQQRMQLETIIEAYEEFSEFDTAEIGLIEPLRAMRLVYYLAWLMRHWADPAFPKNFPWLTGEDYWLRQTATFIEQAKVLQEPPLQLTPMY,not soluble
